Measured values published in patent CN117327177A (dated 2024).

T1: Adiponectin (human, UniProt Q15848)
T1 chain: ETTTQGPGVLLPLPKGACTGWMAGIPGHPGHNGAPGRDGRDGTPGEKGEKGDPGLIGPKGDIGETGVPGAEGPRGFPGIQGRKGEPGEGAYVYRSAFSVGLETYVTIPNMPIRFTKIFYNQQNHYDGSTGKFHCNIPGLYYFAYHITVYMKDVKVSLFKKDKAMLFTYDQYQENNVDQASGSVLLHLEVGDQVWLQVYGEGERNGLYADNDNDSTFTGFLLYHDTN


Assays:
[1] = target: 脂联素抗原(购自HYTEST，8AN7) (UniProt Q15848); assay: indirect ELISA, adiponectin coated at 0.5 ug/ml, antibody at 6.25 ng/ml
[2] = target: 脂联素抗原(购自HYTEST，8AN7) (UniProt Q15848); assay: indirect ELISA, adiponectin coated at 0.5 ug/ml, antibody at 0.78 ng/ml
[3] = target: 脂联素抗原(购自HYTEST，8AN7) (UniProt Q15848); assay: BLI, antibody captured on AMC sensor, adiponectin antigen in gradient dilution in PBST
[4] = target: 脂联素抗原(购自HYTEST，8AN7) (UniProt Q15848); assay: indirect ELISA, adiponectin coated at 0.5 ug/ml, antibody at 3.13 ng/ml
[5] = target: 脂联素抗原(购自HYTEST，8AN7) (UniProt Q15848); assay: indirect ELISA, adiponectin coated at 0.5 ug/ml, antibody at 0 ng/ml (blank)
[6] = target: 脂联素抗原(购自HYTEST，8AN7) (UniProt Q15848); assay: indirect ELISA, adiponectin coated at 0.5 ug/ml, antibody at 0.39 ng/ml
[7] = target: 脂联素抗原(购自HYTEST，8AN7) (UniProt Q15848); assay: indirect ELISA, adiponectin coated at 0.5 ug/ml, antibody at 1.56 ng/ml
[8] = target: T1, Adiponectin; assay: BLI

OD450 (ref 630 nm) [1] [OD]	OD450 (ref 630 nm) [2] [OD]	Kd [3] [nM]	koff [3] [s⁻¹]	kon [3] [M⁻¹ s⁻¹]	OD450 (ref 630 nm) [4] [OD]	OD450 (ref 630 nm) [5] [OD]	OD450 (ref 630 nm) [6] [OD]	OD450 (ref 630 nm) [7] [OD]	Kd [8] [nM]	Molecule
1.8	0.451	87.1	0.00923	106000	1.43	0.055	0.261	0.802		对照 (antibody)
2.33	1.79		0.00209	5.58e+06	2.26	0.074	1.02	2.06	0.374	Anti-APN 6C2mut1 (antibody, V domains shown) VH: EVQLQQSGPELVKPGASVKMSCKASGYSFTGYFINWVKQSHGKSLEWIGRINPYNGDTFYNEKFKGKATFTADISSSAAHMELLSLTSEDSAVYYCGRGGGLQRPYFDYWGQGTTLTVSP VL: DIQMTQSSSYLSVSLGGRVTITCKASDHVNNWLAWYQQKPGNAPRLLISGATNLETGVPSRFSGSGSGKDYTLTITSVQTEDVATYYCQQYWISALTFGAGTKLELN
